Assay results from patent US20250186597A1, “TARGETED IMMUNE ACTIVATION WITH IL-18 IMMUNOCYTOKINES” (BRIGHT PEAK THERAPEUTICS AG, priority 2023, published 2025).
Where a chain is given by its changes, count along the chain named. Names may count otherwise.

T1: human IL-18BP (Homo sapiens, UniProt O95998)
T1 construct: His
T1 sequence (O95998 31-194): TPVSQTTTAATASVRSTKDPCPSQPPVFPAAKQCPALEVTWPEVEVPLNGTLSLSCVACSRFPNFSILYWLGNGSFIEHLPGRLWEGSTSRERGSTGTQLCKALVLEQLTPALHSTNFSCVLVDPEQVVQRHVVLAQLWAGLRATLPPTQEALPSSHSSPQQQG

B1: C148: IL-18 polypeptide: F2A, V11I, C38A, K53A, C76A, C127A (protein)
chain: YAGKLESKLSIIRNLNDQVLFIDQGNRPLFEDMTDSDARDNAPRTIFIISMYADSQPRGMAVTISVKCEKISTLSAENKIISFKEMNPPDNIKDTKSDIIFFQRSVPGHDNKMQFESSSYEGYFLAAEKERDLFKLILKKEDELGDRSIMFTVQNED
B2: C162: IL-18 polypeptide: K8E, V11I, C38A, C76A, Q103R, C127A (protein)
chain: B1 chain with A2F, K8E, A53K, Q103R
B3: C159: IL-18 polypeptide: V11I, C38A, K53A, C76A, H109A, C127A (protein)
chain: B1 chain with A2F, H109A
B4: C154: IL-18 polypeptide: V11I, E31A, D37A, C38A, K53A, C76A, C127A (protein)
chain: B1 chain with A2F, E31A, D37A
B5: C163: IL-18 polypeptide: V11I, C38A, C76A, Q103K, C127A (protein)
chain: B1 chain with A2F, A53K, Q103K
B6: 34 (protein)
chain: B1 chain with A2F, E6K, I11V, A38C, S55A, A76C, A127C
B7: C153: IL-18 polypeptide: V11I, D37A, C38A, K53A, C76A, C127A (protein)
chain: B1 chain with A2F, D37A
B8: C151: IL-18 polypeptide: V11I, D35A, C38A, K53A, C76A, C127A (protein)
chain: B1 chain with A2F, D35A
B9: C156: IL-18 polypeptide: V11I, C38A, N41A, K53A, C76A, C127A (protein)
chain: B1 chain with A2F, N41A
B10: C165: IL-18 polypeptide: V11I, C38A, S55R, C76A, C127A (protein)
chain: B1 chain with A2F, A53K, S55R
B11: C150: IL-18 polypeptide: V11I, T34A, C38A, K53A, C76A, C127A (protein)
chain: B1 chain with A2F, T34A
B12: C152: IL-18 polypeptide: V11I, S36A, C38A, K53A, C76A, C127A (protein)
chain: B1 chain with A2F, S36A
B13: C158: IL-18 polypeptide: V11I, C38A, K53A, C76A, G108A, C127A (protein)
chain: B1 chain with A2F, G108A
B14: C149: IL-18 polypeptide: V11I, E31A, C38A, K53A, C76A, C127A (protein)
chain: B1 chain with A2F, E31A
B15: C155: IL-18 polypeptide: V11I, C38A, D40A, K53A, C76A, C127A (protein)
chain: B1 chain with A2F, D40A
B16: C160: IL-18 polypeptide: V11I, C38A, K53A, C76A, D110A, C127A (protein)
chain: B1 chain with A2F, D110A
B17: C161: IL-18 polypeptide: K8R, V11I, C38A, C76A, Q103E, C127A (protein)
chain: B1 chain with A2F, K8R, A53K, Q103E
B18: C164: IL-18 polypeptide: V11I, C38A, S55H, C76A, C127A (protein)
chain: B1 chain with A2F, A53K, S55H
B19: C157: IL-18 polypeptide: V11I, C38A, K53A, C76A, C127A, D132A (protein)
chain: B1 chain with A2F, D132A

target: T1, human IL-18BP; assay: IL-18BP binding alphaLISA assay (Example 4, used in Example 22B); conditions: IL-18BP AlphaLISA
Method: A human IL-18BP AlphaLISA Assay Kit is used to determine the binding affinity of each immunocytokine and IL-18 variant for IL-18BP, which detected the presence of free form IL-18BP.
Sixteen three-fold serial dilutions of IL-18 analytes are prepared in aMEM medium supplemented with 20% FCS, Glutamax, and 25 µM β-mercaptoethanol in the presence of 5 ng/mL of His-tagged human IL-18BP. Final IL-18 analytes concentration range from 2778 nM to […].
After 1 hr incubation at room temperature, free IL-18BP levels are measured using a […]. In a 384 well OPTIplate, 5 μL of 5× Anti-IL-18BP acceptor beads are added to 7.5 μL of an IL-18/IL-18BP mix. After 30 min incubation at room temperature with shaking, 5 μL of biotinylated Anti-IL-18BP antibodies are added to each well. The plate is incubated further for 1 hr at room temperature. Under subdued light, 12.5 μL of 2× streptavidin (SA) donor beads are pipetted into each well, and the wells are incubated with shaking for an additional 30 min at room temperature. The AlphaLisa signal is then measured on an Enspire plate reader with 680 and 615 nm as excitation and emission wavelengths, respectively. The dissociation constant (KD) is calculated based on a variable slope, four parameter analysis using GraphPad PRISM software.
An IL-18 binding protein AiphaLISA experiment substantially as described in Example 4 was performed on IL-18 polypeptide which can be incorporated into immunocytokine compositions as provided herein to assess ability to bind to IL-181BP. It is expected that the IL-18 polypeptides provided below would behave analogously to C086 (SEQ ID NO: 30) when incorporated into an immunocytokine composition as those otherwise provided herein.

| Kd [nM] | Molecule |
| --- | --- |
| 57.2 | B1 |
| 0.85 | B2 |
| 0.55 | B3 |
| 2.12 | B4 |
| 0.05 | B5 |
| > 1500 | B6 |
| 4.55 | B7 |
| 2.88 | B8 |
| 18.5 | B9 |
| 0.15 | B10 |
| 1.24 | B11 |
| 1.12 | B12 |
| 1.24 | B13 |
| 0.64 | B14 |
| 0.74 | B15 |
| 0.71 | B16 |
| 0.06 | B17 |
| 0.08 | B18 |
| 13.7 | B19 |

system: NK-92 cells; assay: IL-18 binding protein inhibition cellular assay in NK-92 cells (Example 4, used in Example 22C); assay type: cell-based, human; conditions: inhibition by IL-18BP of IFNg stimulation in NK92 cells
Method: The NK cell line NK-92 derived from a patient with lymphoma (ATCC® CRL-2407™) is cultured in aMEM medium supplemented with 20% FCS-Glutamax, 25 µM B-mercaptoethanol, and 100 IU/mL of recombinant human IL-2.
On the day of experiment, cells are harvested and washed with aMEM medium without IL-2 and containing 1 ng/mL of recombinant human IL-12. After counting, the cells are seeded at 100,000 cells/well in a 384 well titer plate and incubated at 37° C./5% CO2. Sixteen 2-fold serial dilutions of Fc-fused human IL-18 binding protein isoform a (IL-18BPa) are prepared in aMEM medium. 1 ng/mL of IL-12 containing 2 nM of each IL-18 polypeptide variant is added to the NK-92 cells. The final IL-18 analyte concentration is 1 nM, and the final IL-18BPa concentration ranged from 566 nM to […].
After incubating the cells for 16-20 hr at 37° C./5% CO2, 5 μL of the supernatant is carefully transferred to a 384 microwell OptiPlate. IFNγ levels are measured using a human IFNγ AlphaLISA Assay Kit. Briefly, 10 μL of 2.5× AlphaLISA anti-IFNγ acceptor beads and biotinylated antibody anti-IFNγ mix are added to 5 μL of NK-92 supernatants. The mixtures are incubated for 1 hr at room temperature with shaking. Under subdued light, 2.5 μL of 2×SA donor beads are pipetted in each well and incubated for 30 min at room temperature with shaking. AlphaLISA signals are then measured on an EnSpire™ plate reader using 680 nm and 615 nm as excitation and emission wavelengths, respectively. Half maximal inhibitory concentrations (IC50) are calculated based on a variable slope and four parameter analysis using GraphPad PRISM software.
(§1) The experiments described in Example 4 for determination of IFNg stimulation in NK92 cells (and inhibition by IL-18 BP) were performed substantially as described on IL-18 polypeptides in order to assess their activities and their suitability for incorporation into immunocytokine compositions. It is expected that the IL-18 polypeptides provided below would behave analagously to C086 (SEQ ID NO: 30) when incorporated into an immunocytokine composition as those otherwise provided herein.

| IC50 [nM] | Molecule |
| --- | --- |
| 5.05 | B1 |
| 7.29 | B2 |
| 1.81 | B3 |
| 3.71 | B4 |
| 0.823 | B5 |
| 229 | B6 |
| 2.22 | B7 |
| 3.62 | B8 |
| 0.681 | B9 |
| 0.885 | B10 |
| 21.3 | B11 |
| 7.85 | B12 |
| 3.98 | B13 |
| 1.17 | B14 |
| 3.23 | B15 |
| 3.18 | B16 |
| 1.07 | B17 |
| 0.456 | B18 |
| 6.08 | B19 |

system: NK-92 cells; assay: IFNγ induction cellular assay in NK-92 cells (Example 4, used in Example 22C); assay type: cell-based, human; conditions: IFNg stimulation in NK92 cells
Method: The ability of immunocytokines and IL-18 polypeptides provided herein are assessed for ability to induce IFN[…] in a cellular assay according to the protocol below.
The NK cell line NK-92 derived from a patient with lymphoma (ATCC® CRL-2407™) is cultured in aMEM medium supplemented with 20% FCS, Glutamax, 25 µM B-mercaptoethanol, and 100 IU/mL of recombinant human IL-2.
On the day of experiment, cells are harvested and washed with aMEM medium without IL-2 and containing 1 ng/mL of recombinant human IL-12. After counting, cells are seeded at 100,000 cells/well in a 384 well titer plate and incubated at 37° C./5% CO2. Sixteen 4-fold serial dilutions of IL-18 analytes are prepared in aMEM medium, and 1 ng/mL of IL-12 were added to the NK-92 cells. Final IL-18 analyte concentrations range from 56 nM to 5×10^−5 pM.
After incubating the cells for 16-20 hr at 37° C./5% CO2, 5 μL of supernatant is carefully transferred to a 384 microwell OptiPlate. IFNγ levels are measured using a human IFNγ AlphaLISA Assay Kit. Briefly, 10 μL of 2.5× AlphaLISA Anti-IFNγ acceptor beads and biotinylated antibody anti-IFNγ mix are added to the 5 μL of NK-92 supernatants. The mixtures are incubated for 1 hr at room temperature with shaking. Under subdued light, 2.5 μL of 2× streptavidin (SA) donor beads are pipetted into each well, and the wells are incubated for 30 min at room temperature with shaking. AlphaLISA signals are then measured on an EnSpire™ plate reader using 680 nm and 615 nm as excitation and emission wavelengths, respectively. Half maximal effective concentrations (EC50) are calculated based on a variable slope and four parameter analysis using GraphPad PRISM software.
as §1

| EC50 [nM] | Molecule |
| --- | --- |
| 0.256 | B1 |
| 0.061 | B2 |
| 0.123 | B3 |
| 0.062 | B4 |
| 0.093 | B5 |
| 0.824 | B6 |
| 0.175 | B7 |
| 0.061 | B8 |
| 0.558 | B9 |
| 0.176 | B10 |
| 0.015 | B11 |
| 0.033 | B12 |
| 0.073 | B13 |
| 0.187 | B14 |
| 0.067 | B15 |
| 0.028 | B16 |
| 0.057 | B17 |
| 0.414 | B18 |
| 0.056 | B19 |
